US20260193348A1 (ANTENGENE BIOLOGICS, published 2026)

Key:
[1] = target: T1, GPRC5D on multiple myeloma cells (human, UniProt Q9NZD1 1-345); assay: FACS on MM.1S cells
T1 construct: whole, on cells; Endogenous GPRC5D on multiple myeloma cell lines; also called G-protein coupled receptor family C group 5 member D; MM.1S, MOLP-8, L363, RPMI8226 cells

[2] = target: T2, CD3 on T cells / Jurkat cells (human, UniProt P07766 23-207; P04234 22-171; P09693 23-182); assay: FACS on Jurkat cells
T2 construct: whole, on cells; Native CD3 complex on CD3+ T cells isolated from normal donors or on Jurkat cells; also called human CD3; CD3+ T cells
T2 sequence (P07766 23-207, chain 1 of 3): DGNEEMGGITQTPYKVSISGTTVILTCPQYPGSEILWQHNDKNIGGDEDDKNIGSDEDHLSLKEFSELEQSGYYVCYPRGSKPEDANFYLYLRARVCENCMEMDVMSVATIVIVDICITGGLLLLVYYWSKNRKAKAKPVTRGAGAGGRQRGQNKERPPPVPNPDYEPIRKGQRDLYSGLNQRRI
T2 sequence (P04234 22-171, chain 2 of 3): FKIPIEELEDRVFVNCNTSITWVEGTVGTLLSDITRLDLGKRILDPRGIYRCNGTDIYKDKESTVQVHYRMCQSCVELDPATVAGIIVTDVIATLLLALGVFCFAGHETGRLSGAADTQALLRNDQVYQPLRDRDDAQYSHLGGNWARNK
T2 sequence (P09693 23-182, chain 3 of 3): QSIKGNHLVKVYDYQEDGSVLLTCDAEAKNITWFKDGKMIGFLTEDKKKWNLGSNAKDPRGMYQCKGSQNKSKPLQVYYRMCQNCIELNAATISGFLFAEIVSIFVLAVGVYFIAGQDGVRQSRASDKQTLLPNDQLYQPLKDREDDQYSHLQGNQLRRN

T1 sequence (Q9NZD1 whole entry): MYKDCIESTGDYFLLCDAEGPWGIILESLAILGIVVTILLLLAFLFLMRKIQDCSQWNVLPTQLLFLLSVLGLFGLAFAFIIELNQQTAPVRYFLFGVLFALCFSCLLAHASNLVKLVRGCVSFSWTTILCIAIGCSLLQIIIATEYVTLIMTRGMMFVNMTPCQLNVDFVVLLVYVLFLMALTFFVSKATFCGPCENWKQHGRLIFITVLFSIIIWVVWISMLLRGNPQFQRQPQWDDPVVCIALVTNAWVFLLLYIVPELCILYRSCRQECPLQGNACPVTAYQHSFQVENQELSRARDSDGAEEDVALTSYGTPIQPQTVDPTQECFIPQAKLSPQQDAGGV

Row | Binder | binding result [1] | binding result [2]
1 | Bis-108+ch147 (bispecific antibody, V domains shown, Fab-scFv-Fab (2+1): two humanized anti-GPRC5D Fabs (first VH/VL) and one anti-CD3 scFv (second VH/VL, parental clone 147E11E2)) VH 1: EVQLVQSGAEVKKPGASVKVSCKASGYTFTSYVIHWVRQAPGQGLEWMGYFNPYNDGTKYNEEFKGRVTLTSDKSTSTAYMELRSLRSDDTAVYYCARGGVRRYFDVWGQGTTVTVSS VL 1: DIQMTQSPSSLSASVGDRVTITCRASQDIGSNLNWLQQKPGKAIKRLIYATFGLDSGVPSRFSGSRSGTDFTLTISSLQPEDFATYYCQQYASFPYTFGGGTKVEIK VH 2: QVQLQQPGTELVKPGTSVKLSCKASGYTFTSYWMHWVKQRPGQCLEWIGNINPSNGATNYNEKFKSKATLTVDKSSSTAYMQLSSLTSEDSAVYYCARDRSSQYYFDYWGQGTTLTVSS VL 2: DIVMSQSPSSLAVSAGEKVTMSCKSSQSLLNSRSRKNYLAWYQQKPGQSPKLLIYWASTRESGVPDRFTGSGSGTDFTLTISSVQAEDLAVYYCTQSYTLRTFGCGTKLEIK | binds | binds
2 | Bis-108+147-S32T.L (bispecific antibody, V domains shown, Fab-scFv-Fab (2+1): first VH/VL = anti-GPRC5D Fabs, second VH/VL = anti-CD3 scFv) VH 1: EVQLVQSGAEVKKPGASVKVSCKASGYTFTSYVIHWVRQAPGQGLEWMGYFNPYNDGTKYNEEFKGRVTLTSDKSTSTAYMELRSLRSDDTAVYYCARGGVRRYFDVWGQGTTVTVSS VL 1: DIQMTQSPSSLSASVGDRVTITCRASQDIGSNLNWLQQKPGKAIKRLIYATFGLDSGVPSRFSGSRSGTDFTLTISSLQPEDFATYYCQQYASFPYTFGGGTKVEIK VH 2: EVQLVQSGAEVKKPGSSVKVSCKASGYTFTSYWMHWVRQAPGQCLEWMGNINPSSGATNYNEKFKSRVTLTVDKSTSTAYMELSSLRSEDTAVYYCARDRSSQYYFDYWGQGTTVTVSS VL 2: DIVMTQSPDSLAVSLGERATINCKSSQSLLNTRSRKNYLAWYQQKPGQPPKLLIYWASTRESGVPDRFSGSGSGTDFTLTISSLQAEDVAVYYCTQSYTLRTFGCGTKVEIK | binds | binds

Further lines, results first:

Row | binding result [1] | binding result [2] | Binder
3 | binds | binds | Bis-108+147-N31Y.L (bispecific antibody, V domains shown, Fab-scFv-Fab (2+1): first VH/VL = anti-GPRC5D Fabs, second VH/VL = anti-CD3 scFv) VH 1: EVQLVQSGAEVKKPGASVKVSCKASGYTFTSYVIHWVRQAPGQGLEWMGYFNPYNDGTKYNEEFKGRVTLTSDKSTSTAYMELRSLRSDDTAVYYCARGGVRRYFDVWGQGTTVTVSS VL 1: DIQMTQSPSSLSASVGDRVTITCRASQDIGSNLNWLQQKPGKAIKRLIYATFGLDSGVPSRFSGSRSGTDFTLTISSLQPEDFATYYCQQYASFPYTFGGGTKVEIK VH 2: EVQLVQSGAEVKKPGSSVKVSCKASGYTFTSYWMHWVRQAPGQCLEWMGNINPSSGATNYNEKFKSRVTLTVDKSTSTAYMELSSLRSEDTAVYYCARDRSSQYYFDYWGQGTTVTVSS VL 2: DIVMTQSPDSLAVSLGERATINCKSSQSLLYSRSRKNYLAWYQQKPGQPPKLLIYWASTRESGVPDRFSGSGSGTDFTLTISSLQAEDVAVYYCTQSYTLRTFGCGTKVEIK
4 | binds | binds | Bis-108+147-K36R.L (bispecific antibody, V domains shown, Fab-scFv-Fab (2+1): first VH/VL = anti-GPRC5D Fabs, second VH/VL = anti-CD3 scFv) VH 1: EVQLVQSGAEVKKPGASVKVSCKASGYTFTSYVIHWVRQAPGQGLEWMGYFNPYNDGTKYNEEFKGRVTLTSDKSTSTAYMELRSLRSDDTAVYYCARGGVRRYFDVWGQGTTVTVSS VL 1: DIQMTQSPSSLSASVGDRVTITCRASQDIGSNLNWLQQKPGKAIKRLIYATFGLDSGVPSRFSGSRSGTDFTLTISSLQPEDFATYYCQQYASFPYTFGGGTKVEIK VH 2: EVQLVQSGAEVKKPGSSVKVSCKASGYTFTSYWMHWVRQAPGQCLEWMGNINPSSGATNYNEKFKSRVTLTVDKSTSTAYMELSSLRSEDTAVYYCARDRSSQYYFDYWGQGTTVTVSS VL 2: DIVMTQSPDSLAVSLGERATINCKSSQSLLNSRSRRNYLAWYQQKPGQPPKLLIYWASTRESGVPDRFSGSGSGTDFTLTISSLQAEDVAVYYCTQSYTLRTFGCGTKVEIK
